# Results reported in publication PMC1450329.
# Like-named read-outs stand apart in the source and are kept apart here.
# T1: MutS-E38A (Escherichia coli, UniProt P23909 1-853, E38A)
# T1 sequence: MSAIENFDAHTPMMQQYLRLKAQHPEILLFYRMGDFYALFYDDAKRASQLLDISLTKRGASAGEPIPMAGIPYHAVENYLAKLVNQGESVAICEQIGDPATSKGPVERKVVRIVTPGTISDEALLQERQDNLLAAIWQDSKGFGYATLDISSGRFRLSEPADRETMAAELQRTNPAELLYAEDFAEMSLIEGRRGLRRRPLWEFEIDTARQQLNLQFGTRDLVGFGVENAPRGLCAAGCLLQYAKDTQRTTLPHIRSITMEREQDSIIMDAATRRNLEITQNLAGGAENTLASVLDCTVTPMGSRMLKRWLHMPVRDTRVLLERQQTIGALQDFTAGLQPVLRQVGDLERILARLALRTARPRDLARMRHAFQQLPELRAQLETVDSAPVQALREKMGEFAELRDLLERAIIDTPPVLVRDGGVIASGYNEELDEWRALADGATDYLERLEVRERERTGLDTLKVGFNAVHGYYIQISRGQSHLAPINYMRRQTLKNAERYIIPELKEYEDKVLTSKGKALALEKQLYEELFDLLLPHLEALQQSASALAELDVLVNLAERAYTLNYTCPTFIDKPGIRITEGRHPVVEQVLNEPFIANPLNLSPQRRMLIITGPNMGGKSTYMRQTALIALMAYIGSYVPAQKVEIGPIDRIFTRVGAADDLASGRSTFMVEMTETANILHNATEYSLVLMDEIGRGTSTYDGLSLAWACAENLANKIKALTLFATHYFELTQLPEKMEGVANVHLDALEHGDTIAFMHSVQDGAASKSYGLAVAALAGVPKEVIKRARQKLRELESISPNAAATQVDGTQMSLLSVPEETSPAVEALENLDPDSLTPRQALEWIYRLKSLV
# T2: MutS wild-type (Escherichia coli, UniProt P23909 1-853)
# T2 sequence: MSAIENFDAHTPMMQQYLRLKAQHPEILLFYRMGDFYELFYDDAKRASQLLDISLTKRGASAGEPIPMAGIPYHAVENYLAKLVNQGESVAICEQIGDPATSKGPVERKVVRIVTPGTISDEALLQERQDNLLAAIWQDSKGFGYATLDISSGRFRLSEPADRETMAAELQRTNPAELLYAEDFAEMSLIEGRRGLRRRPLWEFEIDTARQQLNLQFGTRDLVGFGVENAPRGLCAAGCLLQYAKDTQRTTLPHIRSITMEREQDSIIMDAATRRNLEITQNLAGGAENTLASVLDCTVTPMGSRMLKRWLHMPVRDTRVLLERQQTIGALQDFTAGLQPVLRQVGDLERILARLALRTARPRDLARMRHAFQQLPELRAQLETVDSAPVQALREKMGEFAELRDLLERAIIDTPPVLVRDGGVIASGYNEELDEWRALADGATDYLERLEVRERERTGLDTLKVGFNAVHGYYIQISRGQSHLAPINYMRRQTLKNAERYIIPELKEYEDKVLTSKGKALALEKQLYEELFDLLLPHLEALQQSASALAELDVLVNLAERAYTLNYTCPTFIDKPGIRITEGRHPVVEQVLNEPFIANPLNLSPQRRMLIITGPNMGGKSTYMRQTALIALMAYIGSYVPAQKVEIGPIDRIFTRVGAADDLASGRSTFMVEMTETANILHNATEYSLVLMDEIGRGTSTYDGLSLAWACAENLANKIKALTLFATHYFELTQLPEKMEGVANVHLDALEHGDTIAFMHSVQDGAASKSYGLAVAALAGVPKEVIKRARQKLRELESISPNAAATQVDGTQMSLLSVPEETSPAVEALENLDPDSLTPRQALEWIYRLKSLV
# Tests used:
# Experiment in all cases: fluorescence anisotropy
# MutS-E38A = target: T1, MutS-E38A
# MutS wild-type [1] = target: T2, MutS wild-type
# MutS wild-type [2] = target: T2, MutS wild-type; remark: listed apart in the source
Binder,Kd (MutS-E38A),Kd (MutS wild-type [1]),Kd (MutS wild-type [2])
G/T mismatch heteroduplex 30mer (dsDNA) DNA 1: ACCTGTCTGGCAACACTGTCACCGTCGTAT DNA 2: ATACGACGGTGACAGTGTTGCTAGACAGGT,160 ± 58 nM,100 ± 8 nM,
"CP-GpG/CC cisplatinated homoduplex 30mer (dsDNA, cisplatin 1,2-GpG intrastrand cross-link at G9-G10 of strand 1) DNA 1: ACCTGTCTGGCAACACTGTCACCGTCGTAT DNA 2: ATACGACGGTGACAGTGTTGCCAGACAGGT",600 ± 78 nM,1300 ± 65 nM,1340 ± 580 nM
"CP-GpG/CT cisplatinated mismatch 30mer (dsDNA, cisplatin 1,2-GpG intrastrand cross-link at G9-G10 of strand 1) DNA 1: ACCTGTCTGGCAACACTGTCACCGTCGTAT DNA 2: ATACGACGGTGACAGTGTTGCTAGACAGGT",200 ± 69 nM,360 ± 46 nM,
G/C homoduplex 30mer (dsDNA) DNA 1: ACCTGTCTGGCAACACTGTCACCGTCGTAT DNA 2: ATACGACGGTGACAGTGTTGCCAGACAGGT,610 ± 58 nM,,1080 ± 720 nM
